Source: article PMC8563728 (Nature Communications, 2021)

Molecular target: SARS-CoV-2 S1 (SARS-CoV-2, wild type (Wuhan-Hu-1), UniProt P0DTC2)
Test: SPR
Details: both partners purified

B1: 58G6 (antibody, V domains shown)
VH: QMQLVQSGPEVKKPGTSVKVSCKASGFTFSSSAVQWVRQARGQHLEWIGWIVVGSGNTNYAQKFQERVTLTRDMSTRTAYMELSSLRSEDTAVYYCAAPNCNSTTCHDGFDIWGQGTVVTVSS
VL: EIVLTQSPGTLSLSPGERATLSCRASQSVRSSYLGWYQQKPGQAPRLLIYGASSRATGIPDRFSGSGSGTDFTLTISRLESEDFAVYYCQQYDNSPWTFGQGTKVEIK
notes: also called 58G6 mAb; copies: 2 + 2
B1 gave a Kd of 1.08 nM.
